Experimental data: paper PMC8857482

T1: Csy complex (type I-F surveillance complex: Cas8f, Cas5f, Cas7f, Cas6f + crRNA) (Pseudomonas aeruginosa, UniProt Q02ML9;Q02MM0;Q02MM1;Q02MM2 1-434;1-327;1-342;1-187)
T1 sequence 1: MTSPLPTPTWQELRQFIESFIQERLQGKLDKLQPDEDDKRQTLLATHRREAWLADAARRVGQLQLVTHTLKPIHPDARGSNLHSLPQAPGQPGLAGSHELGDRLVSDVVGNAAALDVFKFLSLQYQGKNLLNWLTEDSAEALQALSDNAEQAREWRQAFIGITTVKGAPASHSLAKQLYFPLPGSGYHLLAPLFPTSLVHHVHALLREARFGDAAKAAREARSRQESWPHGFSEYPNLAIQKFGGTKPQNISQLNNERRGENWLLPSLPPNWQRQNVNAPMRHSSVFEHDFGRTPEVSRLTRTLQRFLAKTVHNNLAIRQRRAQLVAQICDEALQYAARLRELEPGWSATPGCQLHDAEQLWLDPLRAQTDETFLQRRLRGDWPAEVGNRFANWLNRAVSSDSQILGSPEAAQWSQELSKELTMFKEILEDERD
T1 sequence 2: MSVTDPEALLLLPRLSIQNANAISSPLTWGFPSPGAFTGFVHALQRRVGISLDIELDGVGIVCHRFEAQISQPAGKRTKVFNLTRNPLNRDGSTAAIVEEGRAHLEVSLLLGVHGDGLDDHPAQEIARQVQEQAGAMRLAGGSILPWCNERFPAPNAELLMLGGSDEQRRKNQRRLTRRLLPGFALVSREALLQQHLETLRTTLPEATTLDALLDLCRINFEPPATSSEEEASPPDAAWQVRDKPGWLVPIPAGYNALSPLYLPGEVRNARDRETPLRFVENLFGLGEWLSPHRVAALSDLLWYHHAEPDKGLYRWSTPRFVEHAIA
T1 sequence 3: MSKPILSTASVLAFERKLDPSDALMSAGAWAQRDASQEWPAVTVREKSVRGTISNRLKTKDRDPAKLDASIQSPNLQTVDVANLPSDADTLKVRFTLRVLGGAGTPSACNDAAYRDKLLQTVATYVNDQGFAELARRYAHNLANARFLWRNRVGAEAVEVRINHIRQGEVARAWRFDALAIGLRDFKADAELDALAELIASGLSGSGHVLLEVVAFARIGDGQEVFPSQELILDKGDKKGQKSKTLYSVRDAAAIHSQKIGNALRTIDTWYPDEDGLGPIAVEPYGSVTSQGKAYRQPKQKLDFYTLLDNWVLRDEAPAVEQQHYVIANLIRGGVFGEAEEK
T1 sequence 4: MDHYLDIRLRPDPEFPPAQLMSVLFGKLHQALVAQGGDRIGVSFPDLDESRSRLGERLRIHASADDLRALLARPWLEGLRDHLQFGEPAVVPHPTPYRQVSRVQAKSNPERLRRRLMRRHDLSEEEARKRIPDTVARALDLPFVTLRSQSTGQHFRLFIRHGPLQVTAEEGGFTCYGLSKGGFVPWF

B1: 54 bp target dsDNA (dsDNA)
DNA 1: GGAAGCCATCCAGGTAGACGCGGACATCAAGCCCGCCGTGAAGGTGCAGCTGCT
DNA 2: AGCAGCTGCACCTTCACGGCGGGCTTGATGTCCGCGTCTACCTGGATGGCTTCC

The molecules below were run against T1, Csy complex (type I-F surveillance …) (assay: EMSA).

Molecule | binding result
B1 | binds

What follows are molecules tested against Csy complex with Cas7f (K58A/K60A) (Pseudomonas aeruginosa) (UniProt Q02ML9) (assay: MST).

Molecule | Kd
AcrIF13 (natural protein) | 34.2 nM

Each molecule was assayed against Csy complex with Cas8f (N250D) (Pseudomonas aeruginosa) (UniProt Q02ML9) (assay: MST).

Molecule | Kd
AcrIF13 (natural protein) | 647 nM

The molecules below were run against type I-F CRISPR-Cas surveillance complex (Csy complex) (Pseudomonas aeruginosa) (UniProt Q02ML9) (assay: MST).

Molecule | Kd
AcrIF13 (natural protein) | 1.51 nM
AcrIF13 D21K/E22K (natural protein) | 29.8 nM
AcrIF13 D43K/D44K (natural protein) | 1.85 nM
AcrIF13 D45K/D46K (natural protein) | 6.22 nM
AcrIF13 D63K (natural protein) | 24.6 nM
AcrIF13 D102K (natural protein) | 9.21 nM
AcrIF13 D113K (natural protein) | 67.7 nM
AcrIF13 E10K (natural protein) | 22.3 nM
AcrIF13 E18K (natural protein) | 2.55 nM
AcrIF13 E40K (natural protein) | 5.17 nM
AcrIF13 E50K (natural protein) | 18.1 nM
AcrIF13 E57K (natural protein) | 5.39 nM
AcrIF13 E82K/E83K/D84K (natural protein) | 7.22 nM
AcrIF13 E97K (natural protein) | 14.3 nM
